The results in this text go back to patent US20220204643A1 (published 2022).

Common to all, as to experiment: protein array
For test [1], the target named is T1, hydroxymethylbilane synthase, transcript variant X3 (human, UniProt P08397 18-361).
T1 construct: on protein array; also called HMBS; IAMBS
T1 sequence: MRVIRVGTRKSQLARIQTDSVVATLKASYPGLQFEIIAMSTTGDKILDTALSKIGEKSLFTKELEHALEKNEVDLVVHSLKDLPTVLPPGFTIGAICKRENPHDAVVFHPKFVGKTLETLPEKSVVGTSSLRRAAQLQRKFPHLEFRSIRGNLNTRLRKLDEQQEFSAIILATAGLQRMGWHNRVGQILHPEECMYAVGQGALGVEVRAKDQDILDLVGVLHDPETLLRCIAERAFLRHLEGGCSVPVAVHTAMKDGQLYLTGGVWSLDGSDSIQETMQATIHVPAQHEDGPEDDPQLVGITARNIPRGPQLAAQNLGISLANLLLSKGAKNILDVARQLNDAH

Test [2] concerns the target T2, hook microtubule tethering protein 2, transcript variant 2 (human, UniProt Q96ED9 1-719).
T2 construct: on protein array; also called HOOK2
T2 sequence: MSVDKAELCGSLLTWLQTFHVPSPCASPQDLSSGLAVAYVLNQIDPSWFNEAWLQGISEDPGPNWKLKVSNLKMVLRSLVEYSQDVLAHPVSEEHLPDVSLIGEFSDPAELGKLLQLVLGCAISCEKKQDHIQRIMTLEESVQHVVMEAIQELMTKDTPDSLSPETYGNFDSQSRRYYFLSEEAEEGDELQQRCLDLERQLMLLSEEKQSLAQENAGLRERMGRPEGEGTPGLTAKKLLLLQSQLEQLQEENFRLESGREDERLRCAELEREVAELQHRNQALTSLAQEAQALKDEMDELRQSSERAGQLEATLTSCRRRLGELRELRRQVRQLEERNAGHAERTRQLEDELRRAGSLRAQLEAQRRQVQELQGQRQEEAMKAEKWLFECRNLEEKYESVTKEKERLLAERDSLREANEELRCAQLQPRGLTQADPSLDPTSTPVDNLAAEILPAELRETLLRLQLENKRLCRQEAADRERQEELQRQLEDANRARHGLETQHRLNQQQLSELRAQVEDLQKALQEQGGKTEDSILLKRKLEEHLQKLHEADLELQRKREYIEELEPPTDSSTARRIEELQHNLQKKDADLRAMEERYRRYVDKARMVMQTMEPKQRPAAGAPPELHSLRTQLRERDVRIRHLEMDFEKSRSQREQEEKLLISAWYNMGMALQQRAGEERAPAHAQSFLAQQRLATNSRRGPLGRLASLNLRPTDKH

Test [3] deals with T3, microtubule associated scaffold protein 2, transcript variant 2 (human, UniProt Q5JR59 1040-1369).
T3 construct: on protein array; also called MTUS2
T3 sequence: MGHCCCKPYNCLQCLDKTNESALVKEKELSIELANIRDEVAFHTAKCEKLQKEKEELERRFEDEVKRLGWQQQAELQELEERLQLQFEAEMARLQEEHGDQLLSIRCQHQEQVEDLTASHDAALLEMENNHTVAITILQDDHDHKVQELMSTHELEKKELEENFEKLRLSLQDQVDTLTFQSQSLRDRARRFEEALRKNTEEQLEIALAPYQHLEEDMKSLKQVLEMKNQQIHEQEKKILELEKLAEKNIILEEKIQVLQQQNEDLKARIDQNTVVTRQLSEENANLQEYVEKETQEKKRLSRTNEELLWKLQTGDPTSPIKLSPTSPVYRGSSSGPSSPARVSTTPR

The target of a further test is T4, Bcl2 like 1 (human, UniProt Q07817 1-233).
T4 construct: on protein array; also called BCL2L1

The target of test [4] is phosphodiesterase 5A, transcript variant 1 (human, UniProt O76074 1-875).
Another test addresses T5, zinc finger protein 296 (human, UniProt Q8WUU4 1-475).
T5 construct: on protein array; also called ZNF296
T5 sequence: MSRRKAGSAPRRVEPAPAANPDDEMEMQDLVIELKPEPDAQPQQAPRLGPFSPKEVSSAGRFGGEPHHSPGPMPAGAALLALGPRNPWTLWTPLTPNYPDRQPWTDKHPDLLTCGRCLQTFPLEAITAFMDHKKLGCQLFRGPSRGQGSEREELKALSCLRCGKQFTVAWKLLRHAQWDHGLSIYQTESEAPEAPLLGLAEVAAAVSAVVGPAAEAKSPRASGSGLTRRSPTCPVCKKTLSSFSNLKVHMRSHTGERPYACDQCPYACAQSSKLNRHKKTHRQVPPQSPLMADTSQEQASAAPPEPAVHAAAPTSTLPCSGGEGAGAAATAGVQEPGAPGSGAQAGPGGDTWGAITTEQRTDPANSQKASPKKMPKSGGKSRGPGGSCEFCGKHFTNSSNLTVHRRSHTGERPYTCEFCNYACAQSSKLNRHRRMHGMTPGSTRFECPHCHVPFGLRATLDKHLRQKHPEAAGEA

For test [5], the target named is T6, anterior gradient 3, protein disulphide isomerase family member (human, UniProt Q8TD06 22-166).
T6 construct: on protein array; also called AGR3
T6 sequence: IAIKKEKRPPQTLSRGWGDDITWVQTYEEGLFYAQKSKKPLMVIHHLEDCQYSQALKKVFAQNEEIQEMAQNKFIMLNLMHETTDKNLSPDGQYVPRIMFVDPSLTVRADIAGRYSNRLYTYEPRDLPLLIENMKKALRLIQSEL

For test [6], the target named is T7, RAN binding protein 10, transcript variant 1 (human, UniProt Q6VN20 2-620).
T7 construct: on protein array; also called RANBP10

The next test has as its target T8, Ubiquilin 3 (human, UniProt Q9H347 1-655).
T8 construct: on protein array; also called UBQLN3
T8 sequence: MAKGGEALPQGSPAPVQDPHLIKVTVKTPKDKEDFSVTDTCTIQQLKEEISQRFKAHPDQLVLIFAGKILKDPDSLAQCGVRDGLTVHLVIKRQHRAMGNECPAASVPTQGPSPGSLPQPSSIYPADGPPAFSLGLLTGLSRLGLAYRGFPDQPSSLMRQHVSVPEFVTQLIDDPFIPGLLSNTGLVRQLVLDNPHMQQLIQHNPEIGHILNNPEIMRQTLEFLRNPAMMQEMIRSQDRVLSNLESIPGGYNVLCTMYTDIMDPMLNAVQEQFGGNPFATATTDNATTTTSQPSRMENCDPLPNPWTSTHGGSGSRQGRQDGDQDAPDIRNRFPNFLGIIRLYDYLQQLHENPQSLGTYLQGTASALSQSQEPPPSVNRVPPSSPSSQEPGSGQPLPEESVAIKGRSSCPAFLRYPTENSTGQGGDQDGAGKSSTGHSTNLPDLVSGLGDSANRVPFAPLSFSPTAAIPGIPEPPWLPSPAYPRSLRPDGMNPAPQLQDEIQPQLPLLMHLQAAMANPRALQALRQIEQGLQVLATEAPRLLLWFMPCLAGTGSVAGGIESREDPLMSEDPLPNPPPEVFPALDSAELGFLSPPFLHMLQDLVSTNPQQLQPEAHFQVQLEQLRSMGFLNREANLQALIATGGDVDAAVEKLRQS

In test [7] the target is T9, ubiquilin 1, transcript variant 2 (human, UniProt Q9UMX0 2-589).
T9 construct: on protein array; also called UBQLN1

The next test addresses T10, ubiquilin 2 (human, UniProt Q9UHD9 2-624).
T10 construct: on protein array; also called UBQLN2

The target of test [8] is T11, arginine and glutamate rich 1 (human, UniProt Q9NWB6 1-273).
T11 construct: on protein array; also called ARGLU1
T11 sequence: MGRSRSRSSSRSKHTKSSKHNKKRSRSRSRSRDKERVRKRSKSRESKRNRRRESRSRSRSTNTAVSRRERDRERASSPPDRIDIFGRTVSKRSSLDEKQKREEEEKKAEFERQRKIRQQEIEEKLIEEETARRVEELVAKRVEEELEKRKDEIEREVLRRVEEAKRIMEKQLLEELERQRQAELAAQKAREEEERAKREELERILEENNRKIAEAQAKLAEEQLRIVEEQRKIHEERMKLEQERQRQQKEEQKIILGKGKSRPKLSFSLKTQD

Test [9] concerns the target T12, SAS-6 centriolar assembly protein, transcript variant 2 (human, UniProt Q6UVJ0 168-657).
T12 construct: on protein array; also called SASS6
T12 sequence: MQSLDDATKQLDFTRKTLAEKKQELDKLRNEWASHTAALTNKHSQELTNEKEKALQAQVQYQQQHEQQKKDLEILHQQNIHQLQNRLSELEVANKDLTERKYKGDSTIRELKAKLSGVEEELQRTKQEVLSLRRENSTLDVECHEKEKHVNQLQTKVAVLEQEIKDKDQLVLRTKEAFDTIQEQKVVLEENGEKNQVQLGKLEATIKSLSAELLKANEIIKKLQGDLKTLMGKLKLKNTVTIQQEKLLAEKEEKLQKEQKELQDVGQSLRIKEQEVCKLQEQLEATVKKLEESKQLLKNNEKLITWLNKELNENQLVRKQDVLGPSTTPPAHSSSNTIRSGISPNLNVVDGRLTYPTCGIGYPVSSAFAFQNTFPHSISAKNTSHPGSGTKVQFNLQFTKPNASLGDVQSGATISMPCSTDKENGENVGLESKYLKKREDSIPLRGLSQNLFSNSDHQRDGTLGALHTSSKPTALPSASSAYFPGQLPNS

T9 sequence (Q9UMX0 other isoform, or with tags, fused parts or gaps mutant limits assumed): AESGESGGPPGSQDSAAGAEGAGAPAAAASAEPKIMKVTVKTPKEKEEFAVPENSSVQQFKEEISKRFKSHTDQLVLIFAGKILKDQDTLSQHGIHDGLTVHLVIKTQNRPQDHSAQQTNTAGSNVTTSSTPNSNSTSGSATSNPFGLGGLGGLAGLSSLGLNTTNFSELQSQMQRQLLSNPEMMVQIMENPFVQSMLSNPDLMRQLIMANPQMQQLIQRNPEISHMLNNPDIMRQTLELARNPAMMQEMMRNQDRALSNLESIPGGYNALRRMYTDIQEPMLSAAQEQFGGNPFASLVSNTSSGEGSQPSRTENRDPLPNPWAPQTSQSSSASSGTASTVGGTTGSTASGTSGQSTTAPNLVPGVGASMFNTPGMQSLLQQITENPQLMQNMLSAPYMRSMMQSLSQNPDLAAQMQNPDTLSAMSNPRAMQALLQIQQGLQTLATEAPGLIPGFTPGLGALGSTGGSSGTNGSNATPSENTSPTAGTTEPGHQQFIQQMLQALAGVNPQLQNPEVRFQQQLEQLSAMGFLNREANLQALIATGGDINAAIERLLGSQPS
T4 sequence (Q07817 whole entry): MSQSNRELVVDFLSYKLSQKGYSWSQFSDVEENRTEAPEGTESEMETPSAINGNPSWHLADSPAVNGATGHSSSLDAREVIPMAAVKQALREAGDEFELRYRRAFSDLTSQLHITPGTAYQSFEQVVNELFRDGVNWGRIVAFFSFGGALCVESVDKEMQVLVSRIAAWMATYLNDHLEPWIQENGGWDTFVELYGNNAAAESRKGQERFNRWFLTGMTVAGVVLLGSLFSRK
T10 sequence (Q9UHD9 2-624 limits assumed): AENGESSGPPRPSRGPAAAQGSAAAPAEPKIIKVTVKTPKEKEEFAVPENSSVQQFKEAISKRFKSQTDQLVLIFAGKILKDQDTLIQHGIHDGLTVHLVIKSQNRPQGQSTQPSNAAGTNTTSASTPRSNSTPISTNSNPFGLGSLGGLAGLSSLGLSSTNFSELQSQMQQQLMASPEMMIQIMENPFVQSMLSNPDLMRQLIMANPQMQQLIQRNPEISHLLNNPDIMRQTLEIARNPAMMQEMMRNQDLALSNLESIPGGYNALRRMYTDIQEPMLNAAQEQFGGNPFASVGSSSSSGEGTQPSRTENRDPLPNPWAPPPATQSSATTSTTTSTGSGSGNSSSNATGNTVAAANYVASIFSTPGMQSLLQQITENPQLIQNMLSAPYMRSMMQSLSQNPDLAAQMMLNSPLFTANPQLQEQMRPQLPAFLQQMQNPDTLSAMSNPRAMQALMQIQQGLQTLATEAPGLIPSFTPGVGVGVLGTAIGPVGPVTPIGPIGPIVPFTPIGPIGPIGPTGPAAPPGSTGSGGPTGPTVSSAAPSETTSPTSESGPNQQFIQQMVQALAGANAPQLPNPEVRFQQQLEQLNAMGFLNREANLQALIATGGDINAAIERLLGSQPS
T7 sequence (Q6VN20 2-620 limits assumed, change not shown): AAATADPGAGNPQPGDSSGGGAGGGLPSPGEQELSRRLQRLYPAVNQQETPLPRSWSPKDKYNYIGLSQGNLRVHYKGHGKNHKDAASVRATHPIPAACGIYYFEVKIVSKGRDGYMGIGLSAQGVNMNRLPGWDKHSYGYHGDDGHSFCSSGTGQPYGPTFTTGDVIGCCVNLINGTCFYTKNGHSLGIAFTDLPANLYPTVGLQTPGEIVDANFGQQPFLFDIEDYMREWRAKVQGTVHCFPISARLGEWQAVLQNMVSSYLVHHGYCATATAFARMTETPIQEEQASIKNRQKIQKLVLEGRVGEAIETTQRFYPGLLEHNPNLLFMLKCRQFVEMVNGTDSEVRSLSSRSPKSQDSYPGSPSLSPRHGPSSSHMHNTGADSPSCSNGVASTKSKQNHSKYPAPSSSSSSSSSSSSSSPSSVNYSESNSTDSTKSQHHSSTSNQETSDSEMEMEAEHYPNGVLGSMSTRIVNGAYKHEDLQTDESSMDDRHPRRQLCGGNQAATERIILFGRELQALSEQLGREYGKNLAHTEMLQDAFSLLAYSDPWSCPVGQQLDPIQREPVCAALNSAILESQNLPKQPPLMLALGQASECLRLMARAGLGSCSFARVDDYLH

B1: TLUS1006 (antibody, V domains shown)
VH: PVHLVQSGAEVRKPGSSVKVSCMASGGSFNTYAVNWVRQAPGQGLEWMGGIIPVFGTTNYAPRFQGRVTITADESTSTVYMELTSLTSEDTAVYYCARDRDSGYERNCLDPWGQGTLVTVSS
VL: DIVMTQSPDSLAVTLGERATINCRSSQTVLYDSNNKNYLAWYQQKPGQPPKLLIYWASIRESGVPDRFSGSGSGTDFTLTINTLQAEDVAIYFCQQYFTTPRTFGQGTKVEIKR
notes: VH/VL tied via antigen in summary, not by name in this stretch
In the case of B1, the binding result in [1] and in test [2] was “binds” each time.

B2: TMEL1027 (antibody, V domains shown)
VH: QVQLVQSGAEVKKPGASVKVSCKASGYTFTVYYMHWVRQAPGQGLEWMGRINPNSGGTNYAQKFQGRVTMTRDTSISTAYMELSRLTSDDTAVYYCARVVVVGTDYGMDVWGQGTTVTVSS
VL: VSSELTQDPAVSVALGQTVRITCQGDSLRSYYASWYQQRPGQAPVLVIYGKNNRPSGIPDRFSGSSSGNTASLTITGAQAEDEADYYCNSRDSSGNHVFGTGTKVTVLG
notes: as for B1
For B2, the binding result in test [3] is listed as “binds”.

B3: TMEL1030 (antibody, V domains shown)
VH: QVQLQESGPGLVKPSGTLSLTCAVSGGSISSSNCWSWVRQPPGKGLEWLGEICHSGSTSYNPSLKSRVTISVDKSKNQFSLKLRSVTAADTAVYYCARESPLTVVFDYWGQGTLVTVSS
VL: DIQMTQSPSSLSASVGDRVTITCRASQGIRNDLGWFQQKPGKAPKRLIYAASNLPSGVSSRFSGSGSGTEFTLTISSLQPEDFATYYCLQHNNYPLTFGQGTKVEFKR
notes: as for B1
With B3, the binding result in the test with Bcl2 like 1 is on record as “binds”.

B4: TMEL1028 (antibody, V domains shown)
VH: QVQLVQSGAEVKKPGASVKVSCKASGYTFTSYGISWVRQAPGQGLEWMGWISAYNGNTNYAQKLQGRVTMTTDTSTSTAYMELRSLTSDDTAVYYCARDQGLERANWFDPWGQGTLVTVSS
VL: not shown
notes: as for B1
B4: the binding result (in test [4]; in the test with zinc finger protein 296) was “binds” each time.

B5: TMEL1020 (antibody, V domains shown)
VH: QVHLVQSGAEVKKPGASVKVSCKASGYTFTNYFIHWVRQAPGQGPEWMGVINPSFGSTTYAQKLQGRVTMTRETSTSTVYMELSSLRSEDTAVYYCARESLDSASYSTIAHWGQGTLVTVSS
VL: EIVLAQSPGTLYLSPGERATLSCRASQSVRGNYLAWYQQRPGQAPRLLIYGASSRATGIPDRFGGSGSGTDFTLTITRLLPEDFAVYYCHQYGSSPRTFGQGTKVEIKR
notes: as for B1
For the molecule B5, the binding result in test [5] was “binds”.

B6: TMEL1017 (antibody, V domains shown)
VH: EVQLVESGGGLVKPGGSLRLSCAASGFTFSNYNMNWVRQAPGKGLEWVSSISSSSSYIYYADSVKGRFTISRDNAKNSLYLQMNSLRAEDTAVYYCARDALDFDWLLSAGGFDYWGQGTLVTVSS
VL: ASALTQPASVSGSPGQSITISCTGTSSDVGGYNYVSWYQQHPGKAPKLMIYEVSNRPSGVSNRFSGSKSGNTASLTISGLQAEDEADYYCSSYTSSSTLVFGGGTKLTVLG
notes: as for B1
B6: in [6], the binding result was “binds”.

B7: TMEL1018 (antibody, V domains shown)
VH: PLQLQESGPGLVKPSETLSLTCTVSGGSISSSSYYWGWIRQPPGKGLEWIGSIYYSGSTYYNPSLKSRVTISVDTSKNQFSLKLSSVTAADTAVYSCARLLVGGAFDIWGQGTMVTVSS
VL: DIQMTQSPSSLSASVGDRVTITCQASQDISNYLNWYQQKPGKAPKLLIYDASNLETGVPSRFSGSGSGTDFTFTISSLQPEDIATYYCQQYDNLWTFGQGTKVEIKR
notes: as for B1
In the case of B7, the binding result (with Ubiquilin 3; in test [7]; with ubiquilin 2) was “binds” throughout.

B8: TMEL1031 (antibody, V domains shown)
VH: EVQLVESGGGLVQPGGSLRLSCAASGFTVSSNYMSWVRQAPGKGLEWVSVIYSGGSTYYADSVKGRFTISRDNSKNTLSLQMNSLRAEDTAVYYCARESSAAGYDYWGQGTLVTVSS
VL: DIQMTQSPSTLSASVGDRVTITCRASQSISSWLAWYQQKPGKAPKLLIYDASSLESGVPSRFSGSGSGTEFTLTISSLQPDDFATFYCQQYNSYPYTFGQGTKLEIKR
notes: as for B1
B8: the binding result in test [8] and in test [9] was “binds” in each case.
